From patent US20080182332

Key:
Assay in all cases: cell_activity
[1] = test system: IL-1-FokI C2H2 (pDAB4341/pDAB4323) (engineered); settings: pDAB4341, tobacco BY2-380; pDAB4323 (non-plant codon FokI) 5.53
[2] = test system: IL-1-FokI C3H F2 HIRTGC (pDAB4346/pDAB4356) F2 zinc coordinating region HIRTGC (engineered); settings: pDAB4346, tobacco BY2-380 intrachromosomal recombination; pDAB4356 also active in interchromosomal HR
[3] = test system: IL-1-FokI C3H F4 HAQRCG (pDAB4344) F4 zinc coordinating region HAQRCG (engineered); settings: pDAB4344, tobacco BY2-380
[4] = test system: IL-1-FokI C3H F4 HTKIC (pDAB4342) F4 zinc coordinating region HTKIC (engineered); settings: pDAB4342, tobacco BY2-380
[5] = test system: IL-1-FokI C3H F4 HTKRCGGG (pDAB4343) F4 zinc coordinating region HTKRCGGG (engineered); settings: pDAB4343, tobacco BY2-380

IL-1-L0-FokI site, 4 tandem repeats
activity (GFP expression) [1]: 6.37
activity (GFP expression) [2]: 9.5
activity (GFP expression) [3]: 4.39
activity (GFP expression) [4]: 0.25
activity (GFP expression) [5]: 7.57
